Strand notation (5' to 3'): a small letter for the sugar, then the base; units joined by * are phosphorothioate-linked, units joined directly phosphodiester-linked; [ ] holds rarer units or linkages, { } end groups; capitals alone tell only the bases. m = 2'-O-methyl; r = 2'-OH (RNA)
B1: G000571: TTR sgRNA modified sequence, Human, SEQ ID NO: 112; guide sequence of CR005301 (nucleic acid)
guide: mG*mU*mC*rArCrArGrArArArCrArCrUrCrArCrCrGrUrGrUrUrUrUrArGrAmGmCmUmAmGmAmAmAmUmAmGmCrArArGrUrUrArArArArUrArArGrGrCrUrArGrUrCrCrGrUrUrArUrCrAmAmCmUmUmGmAmAmAmAmAmGmUmGmGmCmAmCmCmGmAmGmUmCmGmGmUmGmCmU*mU*mU*mU
B2: G000509: TTR Cyno specific sgRNA modified sequence, SEQ ID NO: 121; guide sequence of CR005369 (nucleic acid)
guide: mA*mA*mA*rGrUrUrCrUrArGrArUrGrCrCrGrUrCrCrGrGrUrUrUrUrArGrAmGmCmUmAmGmAmAmAmUmAmGmCrArArGrUrUrArArArArUrArArGrGrCrUrArGrUrCrCrGrUrUrArUrCrAmAmCmUmUmGmAmAmAmAmAmGmUmGmGmCmAmCmCmGmAmGmUmCmGmGmUmGmCmU*mU*mU*mU
B3: G000510: TTR Cyno specific sgRNA modified sequence, SEQ ID NO: 122; guide sequence of CR005370 (nucleic acid)
guide: mA*mC*mU*rUrGrUrCrUrUrCrUrCrUrArUrArCrCrCrArGrUrUrUrUrArGrAmGmCmUmAmGmAmAmAmUmAmGmCrArArGrUrUrArArArArUrArArGrGrCrUrArGrUrCrCrGrUrUrArUrCrAmAmCmUmUmGmAmAmAmAmAmGmUmGmGmCmAmCmCmGmAmGmUmCmGmGmUmGmCmU*mU*mU*mU
B4: G000504: TTR Cyno specific sgRNA modified sequence, SEQ ID NO: 116; guide sequence of CR005364 (nucleic acid)
guide: mA*mA*mA*rGrGrCrUrGrCrUrGrArUrGrArGrArCrCrUrGrUrUrUrUrArGrAmGmCmUmAmGmAmAmAmUmAmGmCrArArGrUrUrArArArArUrArArGrGrCrUrArGrUrCrCrGrUrUrArUrCrAmAmCmUmUmGmAmAmAmAmAmGmUmGmGmCmAmCmCmGmAmGmUmCmGmGmUmGmCmU*mU*mU*mU
B5: G000505: TTR Cyno specific sgRNA modified sequence, SEQ ID NO: 117; guide sequence of CR005365 (nucleic acid)
guide: mC*mA*mU*rUrGrArCrArGrCrArGrGrArCrUrGrCrCrUrGrUrUrUrUrArGrAmGmCmUmAmGmAmAmAmUmAmGmCrArArGrUrUrArArArArUrArArGrGrCrUrArGrUrCrCrGrUrUrArUrCrAmAmCmUmUmGmAmAmAmAmAmGmUmGmGmCmAmCmCmGmAmGmUmCmGmGmUmGmCmU*mU*mU*mU

Key:
[1] = test system: TTR; assay: TTR editing dose response (EC50, maximum editing) in primary cyno hepatocytes treated with LNP formulated U-depleted Spy Cas9 mRNA and sgRNAs; type: cell-based, cynomolgus monkey
Experimental: (§1) Primary liver hepatocytes. Primary human liver hepatocytes (PHH) and primary cynomolgus liver hepatocytes (PCH) (Gibco) were cultured per the manufacturer's protocol (Invitrogen, protocol 11.28.2012). In brief, the cells were thawed and resuspended in hepatocyte thawing medium with supplements (Gibco, Cat. CM7000) followed by centrifugation at 100 g for 10 minutes for human and 80 g for 4 minutes for cyno. The supernatant was discarded and the pelleted cells resuspended in hepatocyte plating medium plus supplement pack (Invitrogen, Cat. A1217601 and CM3000). Cells were counted and plated on Bio-coat collagen I coated 96-well plates (ThermoFisher, Cat. 877272) at a density of 33,000 cells/well for human or 60,000 cells/well for cyno (or 65,000 cells/well when assaying effects on TTR protein, described further below). Plated cells were allowed to settle and adhere for 6 or 24 hours in a tissue culture incubator at 37° C. and 5% CO2 atmosphere. After incubation cells were checked for monolayer formation and media was replaced with hepatocyte culture medium with serum-free supplement pack (Invitrogen, Cat. A1217601 and CM4000).
(§2) For LNPs prepared using the cross-flow technique, the LNPs were formed by impinging jet mixing of the lipid in ethanol with two volumes of RNA solutions and one volume of water. The lipid in ethanol is mixed through a mixing cross with the two volumes of RNA solution. A fourth stream of water is mixed with the outlet stream of the cross through an inline tee. (See WO2016010840 FIG. 2.) The LNPs were held for 1 hour at room temperature, and further diluted with water (approximately 1:1 v/v). Diluted LNPs were concentrated using tangential flow filtration on a flat sheet cartridge (Sartorius, 100 kD MWCO) and then buffer exchanged by diafiltration into 50 mM Tris, 45 mM NaCl, 5% (w/v) sucrose, pH 7.5 (TSS). Alternatively, the final buffer exchange into TSS was completed with PD-10 desalting columns (GE). If required, formulations were concentrated by centrifugation with Amicon 100 kDa centrifugal filters (Millipore). The resulting mixture was then filtered using a 0.2 μm sterile filter. The final LNP was stored at 4° C. or −80° C. until further use.
(§3) Additional PCR was performed per the manufacturer's protocols (Illumina) to add chemistry for sequencing. The amplicons were sequenced on an Illumina MiSeq instrument. The reads were aligned to a reference genome (e.g., the human reference genome (hg38), the cynomologus reference genome (mf5), the rat reference genome (rn6), or the mouse reference genome (mm10)) after eliminating those having low quality scores. The resulting files containing the reads were mapped to the reference genome (BAM files), where reads that overlapped the target region of interest were selected and the number of wild type reads versus the number of reads which contain an insertion, substitution, or deletion was calculated.
(§4) The editing percentage (e.g., the “editing efficiency” or “percent editing” or “indel frequency”) is defined as the total number of sequence reads with insertions/deletions (“indels”) or substitutions over the total number of sequence reads, including wild type.
(§5) Lipid nanoparticle formulations of modified sgRNAs targeting human TTR and the cyno matched sgRNA sequences were tested on primary human hepatocytes and primary cyno hepatocytes in a dose response curve. Primary human and cyno hepatocytes were plated as described in Example 1. Both cell lines were incubated at 37° C., 5% CO2 for 24 hours prior to treatment with LNPs. The LNPs used in the experiments detailed in Tables 20-22 were prepared using the cross-flow procedure described above but purified using PD-10 columns (GE Healthcare Life Sciences) and concentrated using Amicon centrifugal filter units (Millipore Sigma), each containing the specified sgRNA and Cas9 mRNA (SEQ ID NO:1). […] LNPs were incubated in hepatocyte maintenance media containing 6% cyno serum at 37° C., 5% CO2 for 5 minutes. […]

[2] = test system: TTR mRNA; assay: TTR mRNA knockdown (quantitative PCR) in primary human hepatocytes treated with LNPs; type: cell-based; conditions: PHH; LNP dose 300 ng mRNA cargo; gRNA:mRNA 1:2; 96 h; biological triplicates; vs untreated control
Experimental: In one experiment, PHH were cultured and treated with LNPs comprising Cas9 mRNA (SEQ ID NO:1) and a gRNA of interest (See FIG. 29, Table 36), as described in Example 4. The LNPs were prepared using the cross-flow procedure described above and purified and concentrated using PD-10 columns and Amicon centrifugal filter units, respectively. The LNPs were formulated with an N:P ratio of 6.0 and contained Lipid A, Cholesterol, DSPC, and PEG2k-DMG in a 50:38:9:2 molar ratio, respectively. The LNPs comprised a gRNA:mRNA ratio of 1:2, and the cells were treated at a dose of 300 ng (with respect to the amount of mRNA cargo delivered).
(§6) Ninety-six (96) hours following LNP treatment (with biological triplicates for each condition), mRNA was purified from PHH cells using the Dynabeads mRNA DIRECT Kit (ThermoFisher Scientific) according to the manufacturer's protocol. Reverse Transcription (RT) was performed with Maxima reverse transcriptase (ThermoFisher Scientific) and a poly-dT primer. The resulting cDNA was purified with Ampure XP Beads (Agencourt). For Quantitative PCR, 2% of the purified cDNA was amplified with Taqman Fast Advanced Mastermix and 3 Taqman probe sets, TTR (Assay ID: Hs00174914_m1), GAPDH (Assay ID: Hs02786624_g1), and PPIB (Assay ID: Hs00168719_m1). The assays were run on the QuantStudio 7 Flex Real Time PCR System according to the manufacturer's instructions (Life Technologies). Relative expression of TTR mRNA was calculated by normalizing to the endogenous controls (GAPDH and PPIB) individually, and then averaged.
The groups in FIG. 29 and Table 36 are identified by the gRNA ID used in each LNP preparation.
In a separate experiment, TTR mRNA knockdown was evaluated following treatment with LNPs comprising G000480, G000486, and G000502. The LNPs were formulated and PHH were cultured and treated with the LNPs, each as described in the experiment above in this Example with the exception that the cells were treated at a dose of 100 ng (with respect to the amount of mRNA cargo delivered).
as §6, with “(single treatment” for “(with biological triplicates”, “the High Capacity cDNA Reverse Transcription Kit” for “Maxima reverse transcriptase”, “according to the manufacturer's instructions.” for “and a poly-dT primer. The resulting cDNA was purified with Ampure XP Beads (Agencourt).”, “the” for “the purified”
The groups in FIG. 30 and Table 37 are identified by the gRNA ID used in each LNP preparation.

[3] = test system: potential off-target genomic sites; assay: Off-target analysis by oligo insertion based assay in primary human hepatocytes (sgRNAs); type: cell-based; conditions: 100 ng Cas9 mRNA, 25 nM sgRNA, 12.5 nM donor oligo, 48 h
Experimental: Off-target analysis of sgRNAs targeting TTR was performed in primary human hepatocytes (PHH) as described in Example 5, with the following modifications. PHH were plated at a density of 33,000 cells per well on collagen-coated 96-well plates as described in Example 1. Twenty-four hours post plating, cells were washed with media and transfected using Lipofectamine RNAiMAX (ThermoFisher, Cat. 13778150) as described in Example 1. Cells were transfected with a lipoplex containing 100 ng Cas9 mRNA, immediately followed by the addition of another lipoplex containing 25 nM of the sgRNA and 12.5 nM of the donor oligo (0.3 μL/well). Cells were lysed 48 hours post-transfection and gDNA was extracted and analyzed as further described in Example 5. The data is graphically represented in FIG. 20.
Fewer sites were detected in PHH for every guide tested as compared to the HekCas9 cell line, with no unique sites detected in PHH alone.

[4] = test system: TTR; assay: TTR editing dose response (EC50, maximum editing) in primary human hepatocytes treated with LNP formulated U-depleted Spy Cas9 mRNA and sgRNAs; type: cell-based
Experimental: as §1, §2, §3, §4, §5

[5] = test system: TTR; assay: TTR editing in primary cyno hepatocytes treated with LNP formulated Spy Cas9 mRNA (SEQ ID NO: 2) and sgRNAs, 12.5 ng mRNA; type: cell-based, cynomolgus monkey; conditions: LNP formulated Spy Cas9 mRNA (SEQ ID NO: 2) and cyno matched sgRNA, lysed 72 hours post treatment
Experimental: as §1
In general, the lipid nanoparticle components were dissolved in 100% ethanol with the lipid component of various molar ratios. The RNA cargos were dissolved in 25 mM citrate, 100 mM NaCl, pH 5.0, resulting in a concentration of RNA cargo of approximately 0.45 mg/mL. The LNPs were formulated with a lipid amine to RNA phosphate (N:P) molar ratio of about 4.5 or about 6, with the ratio of mRNA to gRNA at 1:1 by weight.
The LNPs were formed by microfluidic mixing of the lipid and RNA solutions using a Precision Nanosystems NanoAssemblr™ Benchtop Instrument, according to the manufacturer's protocol. A 2:1 ratio of aqueous to organic solvent was maintained during mixing using differential flow rates. […]
as §3, with “The amplicons were sequenced on an Illumina MiSeq instrument.” left out
The editing percentage (e.g., the “editing efficiency” or “percent editing” or “indel frequency”) is defined as the total number of sequence reads with insertions/deletions (“indels”) or substitutions over the total number of sequence reads, including wild type. […]

[6] = LNP formulated U-depleted Spy Cas9 mRNA and human specific sgRNAs
[7] = LNP formulated U-depleted Spy Cas9 mRNA and cyno specific sgRNAs
[8] = LNP with U-depleted Spy Cas9 mRNA and cyno specific sgRNA, 8 point 3-fold dose response starting at 300 ng mRNA, 72 hours

Molecule	Max Editing [1, 6]	12.5 ng mRNA, 3.9 nM sgRNA, Avg % Edit [5]	Max Editing [1, 7]	Max Editing [4, 8]	other results
B1	97.03%				Avg % Knockdown (TTR mRNA) [2]: 96.17%; # Sites in PHH (off-target integration sites detected) [3]: 1; Max Editing ([4]; LNP formulated U-depleted Spy Cas9 mRNA and human specific sgRNAs, dose response): 71.28%
B2		74.47%			
B3		61.87%			
B4	7.16%		98.04%	7.16%	
B5	13.48%		99.97%	13.48%	

Reference: patent US20230035659A1, “Compositions and Methods for TTR Gene Editing and Treating ATTR Amyloidosis Comprising a Corticosteroid or Use Thereof” (Intellia Therapeutics, Inc., priority 2019, published 2023)
